Assay results: patent publication US9289506B2, “Surface binding of nanoparticle based drug delivery to tissue” (Massachusetts Institute of Technology, priority 2013, dated 2016)

Assays:
[1] = Competitive binding of FITC-Avidin and unlabeled Avidin in cartilage (binding isotherm fit); set-up: species or system bovine; details: labeled Avidin ≦1 μM, no unlabeled Avidin, 3 day equilibration, 37° C.
Experimental: To test this hypothesis, competitive binding experiments were performed in which 3 mm diameter cartilage disks were equilibrated for 3 days in 300 μl buffer containing a fixed amount of (fluorescently labeled) FITC-Avidin (1 μM) and graded amounts of unlabeled Avidin (0, 10, 76, 100, and 203 μM). The disks were split into half disks to reduce the time needed for equilibration, which was performed in 96 well plates at 37° C. The uptake ratio, RU, was measured and plotted versus the total bath concentration of Avidin (labeled+unlabeled, FIG. 13), where RU is defined as the total concentration of Avidin inside the cartilage (bound (CB) plus free (CF)) per intra-tissue water weight, normalized to the Avidin concentration in the equilibration bath (CBath):
Labeled and unlabeled Avidin were held to partition into the cartilage identically. At very low concentration of the labeled Avidin (≦1 μM), a high uptake of ˜120 was observed. When unlabeled Avidin was added to the bath, both species (labeled and unlabeled) could compete for the same (constant) number of binding sites available in the tissue (site density NT). […] To model the data of FIG. 13, a first-order, bimolecular, reversible reaction was produced to describe binding of Avidin to a single dominant binding species within cartilage. A theoretical model was adopted, (Garcia et al., Arch Biochem Biophys, 2003) previously used for characterizing the binding of soluble insulin like growth factor-1 (IGF-1) to IGF-binding proteins (IGF-BPs) that are uniformly enmeshed and fixed within cartilage matrix. According to this model, the equilibrium molar concentration of free solute (CF), bound solute (CB), intra-tissue binding site density (NT) and the equilibrium dissociation constant (KEQ) are related by the binding isotherm:
[formula] which is similar in form to a Langmuir adsorption isotherm. […]
[formula] […] Thus, K is determined by both steric hindrance and electrostatic (Donnan) interactions. […]

[2] = Intra-articular injection of Avidin or Neutravidin in rat knee joints: penetration, uptake and retention in joint tissues
Experimental: Intra-articular (i.a.) injections of 50 μl of 50 μM Avidin (pI 10.5, 66 kDa, diameter ˜7 nm) or Neutravidin (neutral at pH 7, 60 kDa, diameter ˜7 nm) conjugated with Texas Red (both from Invitrogen, CA) were administered in the right knee joints of healthy 18-20 weeks old Fischer-344 rats (Charles River Laboratories). Following the injection, rat knees were flexed and extended to distribute the injected solute throughout the intra-articular space. Contralateral left knees were used as controls. Avidin injected rats were sacrificed at 4 different time points (6 h, 1 d, 4 d, 7 d) and Neutravidin injected rats were sacrificed after 1 day. The following tissue types were extracted from each joint: articular cartilage removed from the patellar groove, femoral condyle and tibial plateau using a scalpel; medial and lateral menisci; i.a. ligaments (ACL & PCL); patellar and quadriceps tendons; and femoral bone. 6 rats were used per treatment condition for a total of 30 rats. Using a digital caliper (Fisher Scientific), the joint thickness was measured before and after the injection at each time point to check for joint swelling indicating an inflammatory response to the injection.
Tissue samples extracted from the rat joints injected with Avidin-Texas Red (Excitation at 595 nm and emission at 615 nm) and sacrificed at 6 h were imaged using a confocal microscope (OLYMPUS, FluoView FV1000) at 10× magnification by taking Z stacks. Images were taken in X-Y plane, which represents the surface through which Avidin diffused. 3D images were reconstructed using Z stacking (slice thickness˜4.5 μm) and cross-sections in the X-Z plane of these 3D images were taken.
Tissue samples from all treatment conditions were then desorbed in 10×PBS for 48 h in 37° C. incubator to disrupt electrostatic interactions and release Avidin/Neutravidin into the desorption bath. […] At the end of the experiment, tissue samples were removed from the bath, lyophilized and the dry weight was measured. Fluorescence signal from desorption bath was quantified using a plate reader (Synergy HT, BioTek). […] The solute uptake was calculated as the concentration of labeled solute in the tissue samples normalized by tissue dry weight.
The half-life of Avidin was calculated by fitting an exponential curve to the experimental data:
Where, C0 is the initial and C(t) is the final Avidin concentration in tissue after time t and λ is the decay constant.

[3] = Equilibrium uptake and desorption of Avidin and NeutrAvidin in cartilage disks; assay type: in vitro ADME, bovine
Excerpt: Cartilage disks were harvested from the femoropatellar grooves of 1-2 week old bovine calf knee joints (obtained from Research 87, Hopkinton, Mass.) as described previously (Patwari et al., Arthritis Rheum, 2003). Briefly, cylindrical cartilage disks (3 mm or 6 mm diameter) were cored using a dermal punch and then sliced to obtain the top 1 mm of cartilage with intact superficial zone. Cartilage disks for all treatment groups were matched for depth and location along the joint surface. The disks were then pre-equilibrated in PBS (without Ca^2±/Mg^2±) supplemented with protease inhibitors (Complete Protease Cocktail tablet in 50 mL PBS, Roche Applied Science, IN) in a 37° C., 5% CO2 incubator for 24-48 h.
Equilibrium uptake of Avidin and NeutrAvidin: 3 mm diameter, 1 mm thick cartilage explants were incubated for specific times in 300 μl of known concentration (3 μM) of FITC-Avidin and FITC-NeutrAvidin, supplemented with protease inhibitors at 37° C. in a 96 well plate format. After removal from the absorption baths, the disks were rinsed, gently wiped and then incubated in 1× or 10×PBS supplemented with protease inhibitors for 24 h or longer as specified. At the end of the experiment, the surfaces of each disk were quickly blotted with Kimwipes and the wet weight was measured. The disks were then lyophilized and the dry weight was measured; the water weight was calculated from the tissue wet and dry weights. The fluorescence signal in the absorption and desorption baths was quantified using a plate reader (1400 Wallace Victor, PerkinElmer, MA); the solute content inside the cartilage disk was determined from the difference between the fluorescence reading of the absorption/desorption baths before and after incubation. […] The solute uptake ratio was calculated as the concentration of the FITC-solute in the cartilage (per intra-tissue water weight) normalized to the concentration of FITC-solute in the equilibration bath.

[4] = One-way diffusion of solutes into cartilage half disks in transport chamber, confocal microscopy imaging; assay type: in vitro ADME, bovine; details: normal cartilage, 4 days
Excerpt: Solute Types: Two types of 15 nm diameter (MW˜300 kDa) Quantum Dots (QD) were used: (i) positively charged, and (ii) charge-neutral; same concentration. Transport of FITC (MW˜300 Da, diam˜0.9 nm) and dextrans (Dex) conjugated with FITC (Sigma Aldrich) of different MW (˜8 kDa, diam˜4.3 nm; ˜40 kDa, diam˜10 nm) were also investigated.
Transport Studies: A special PMMA transparent transport chamber was designed to allow diffusion of solutes into only one side (superficial zone) of the cartilage disk. The chamber was treated with Casein to block non-specific binding of solutes to chamber surfaces. The equilibrated cartilage disks were then cut into halves and placed in the middle of the ‘slot chambers’ of the fixture. The chamber side facing the superficial zone was filled with ˜45 μl of solute-PBS solution; the other side was filled with 1×PBS alone. […]
Using a scalpel, a slice (100-200 μm thick) was then cut from the center of each disk (FIG. 1B). […] Appropriate filters were chosen to eliminate auto-fluorescence of cartilage at the settings used for imaging. […] To ensure proper image comparison, solute concentrations were chosen such that the FITC concentration in each solution was identical, thereby giving equal fluorescence intensities.

[5] = rabbit knee; cited from earlier work
[6] = Non-equilibrium diffusive transport across cartilage disks (transport cell); assay type: in vitro ADME, bovine; details: free FITC added upstream at t=186 min
Experimental: Real-time measurement of diffusive transport of Avidin and NeutrAvidin through young bovine cartilage disks (with intact superficial zone) was measured using a diffusion chamber consisting of two compartments as described previously (Garcia et al., Arch Biochem Biophys, 2003). Groups of three cartilage disks (6 mm diameter, 400 μm thick) were clamped by O-rings between the two compartments of the diffusion chamber (with total exposed tissue area for transport of 0.28 cm^2/disk), such that solute transport from the upstream compartment into and across the cartilage disks, simultaneously, could occur only from the superficial zone of the cartilage (schematic shown in the inset of FIG. 14). The compartments were treated with casein to prevent non-specific adsorption of solutes to the chamber surfaces. […] Aliquots were taken from each chamber at different time intervals, and fluorescence was measured using a plate reader.
The compartment volume of 25 ml is approximately 1,000× larger than the volume of the cartilage plugs in the configuration of FIG. 14 (inset). […] This configuration thereby focuses on quantitation of steady state solute flux and assessment of effective solute diffusivity within cartilage. […]
[formula] where δ is the thickness of the cartilage disk (˜400 μm). DEFF for Avidin was calculated to be 3.8×10^−7 cm^2/s. […]

[7] = pH 7
Excerpt: For the non-covalent conjugation, drug was entrapped inside Avidin structure supra-molecularly, while an ester linker and/or pH sensitive hydrazone linker was utilized for the covalent conjugation.

Substance: Avidin-FITC: FITC-conjugated Avidin [reference compound]
- uptake ratio RU [1]: ~120

Substance: NeutrAvidin: electrically neutral globular protein at pH 7, 60 kDa, diameter ~7 nm; neutral counterpart of Avidin [reference compound]
- presence in rat cartilage and patellar tendon ([2]; 24 h after i.a. injection): no Neutravidin present
- presence in meniscus, ligaments and quadriceps tendon ([2]; 24 h after i.a. injection, compared to Avidin): small but very insignificant amounts
- detection in the femoral bone ([2]; any time point): Neither Avidin nor Neutravidin was detected
- clearance from joint after i.a. injection ([2]; within 24 h): almost complete clearance
- percent of absorbed solute diffused out of the cartilage ([3]; 1×PBS, within 1 day): About 50%
- mean uptake ratio ([3]; 40% GAG-depleted cartilage (chondroitinase-ABC), 24 h): 0.55
- partition coefficient KNeutrAvidin ([3]; estimated from the data of FIG. 12B): 0.44
- mean uptake ratio ([3]; normal cartilage, 24 h): 0.28
- mean uptake ratio ([3]; normal cartilage, 4 days): ~0.44
- penetration into cartilage explant [4]: penetrated approximately half the sample thickness

Substance: albumin
- Half-life [5]: 1.23 to 3.9 h

Substance: fluorescein isothiocyanate [Fluorescein Isothiocyanate (FITC), reference compound]
- diffusivity [6]: 2.8×10^−5 cm^2/s

Substance: hydrazone linker: Avidin conjugated with dexamethasone through pH sensitive hydrazone linkage via biotinylated PEG (FIG. 21C, FIG. 24)
- stability of linker [7]: extremely stable
